Measured values: publication PMC7820290 (Nature Communications, 2020)

Experiments:
Assay in all cases: […]; 5 mM HEPES pH 7.5, 80 mM KCl, 20 °C; […]
Conditions in all cases: both partners purified
[1] = biological target: T1, SARS-CoV-2 nucleocapsid (N) protein, full length (419 aa) (SARS-CoV-2, UniProt P0DTC9 1-419)
T1 construct: also called N^1–419; N^FL

[2] = biological target: T2, SARS-CoV-2 N protein residues 247–419 (SARS-CoV-2, UniProt P0DTC9 247-419)
T2 construct: also called N^247–419

[3] = biological target: T3, SARS-CoV-2 N protein residues 175–419 (SARS-CoV-2, UniProt P0DTC9 175-419)
T3 construct: also called N^175–419

[4] = biological target: T4, SARS-CoV-2 N protein residues 175–364 (SARS-CoV-2, UniProt P0DTC9 175-364)
T4 construct: also called N^175–364

Measured: binding result

B1: soluble C-terminal domain of SARS-CoV-2 membrane (M) protein (aa 104–222 of 222) fused to GFP (domain or fragment)
chain: ARTRSMWSFNPETNILLNVPLHGTILTRPLLESELVIGAVILRGHLRIAGHHLGRCDIKDLPKEITVATSRTLSYYKLGASQRVAGDSGFAAYSRYRIGNYKLNTDHSSSSDNIALLVQ
notes: also called GFP-M^104–222
binds: all assays above
